From publication doi:10.1101/2023.12.02.569699 (bioRxiv, 2023) come the findings set out here.

Positions count from the first letter of the chain named. Names may count otherwise.

The target in the test is T1, RING1B (H. sapiens, UniProt Q99496 1-336).
T1 sequence: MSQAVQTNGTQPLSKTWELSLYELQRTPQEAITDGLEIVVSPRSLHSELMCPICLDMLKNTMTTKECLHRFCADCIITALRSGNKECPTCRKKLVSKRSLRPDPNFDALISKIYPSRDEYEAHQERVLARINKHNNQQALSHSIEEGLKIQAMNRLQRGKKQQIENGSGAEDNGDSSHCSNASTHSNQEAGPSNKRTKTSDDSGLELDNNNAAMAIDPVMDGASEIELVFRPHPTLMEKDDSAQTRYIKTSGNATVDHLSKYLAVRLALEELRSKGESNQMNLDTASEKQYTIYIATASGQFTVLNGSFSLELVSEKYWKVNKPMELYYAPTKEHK
Kind of test: SEC. A general note: SEC sorts molecules by how far they enter the pores of the column.

B1: CBX7 (natural protein)
chain: MELSAIGEQVFAVESIRKKRVRKGKVEYLVKWKGWPPKYSTWEPEEHILDPRLVMAYEEKEERDRASGYRKRGPKPRRLLLQESAAPDVVQTPGDWEPMEQAPEEEAEADLTNGPPPWTPTLPSSEVTVTDITANSVTVTFREAQAAEGFFRDRNEKL
As to B1, the binding result is recorded as “binds”.

B2: CBX7(F11A) (natural protein)
chain: B1 chain with F11A
Take B2: the binding result was “binds”.

B3: MBP-tagged BMI1 (natural protein)
chain: MHRTTRIKITELNPHLMCVLCGGYFIDATTIIECLHSFCKTCIVRYLETSKYCPICDVQVHKTRPLLNIRSDKTLQDIVYKLVPGLFKNEMKRRRDFYAAHPSADAANGSNEDRGEVADEDKRIITDDEIISLSIEFFDQNRLDRKVNKDKEKSKEEVNDKRYLRCPAAMTVMHLRKFLRSKMDIPNTFQIDVMYEEEPLKDYYTLMDIAYIYTWRRNGPLPLKYRVRPTCKRMKISHQRDGLTNAGELESDSGSDKANSPAGGIPSTSSCLPSPSTPVQSPHPQFPHISSTMNGTSNSPSGNHQSSFANRPRKSSVNGSSATSSG
Regarding B3, the binding result is given as “binds”.
